The record followed here is US20260258137A1.

The target in experiment [1] is human PD-L1 on CHO-K1 cells (CHO-K1/hPD-L1, Nanjing Genscript, M00543) (human) (UniProt Q9NZQ7). The experiment in a line: flow cytometry on CHO-K1/hPD-L1 cells.
Experiment [2] has as its target cynomolgus PD-L1 on CHO-K1 cells (CHO-K1/cynoPD-L1, Nanjing Genscript, M00573) (cynomolgus) (UniProt G7PSE7). The experiment can be described thus: flow cytometry on CHO-K1/cynoPD-L1 cells. Background: A flow cytometer gives signals particle by particle.
The target of experiment [3] is human PD-L1 on CHO-K1 cells (CHO-K1/hPD-L1, Nanjing Genscript, M00543) (human) (UniProt Q9NZQ7). The experiment can be described thus: flow cytometry competition: biotin-hPD-1 binding to CHO-K1/hPD-L1 cells.

Chain of human PD-L1 on CHO-K1 cells (CHO-K1/hPD-L1, Nanjing Genscript, M00543) (human) (Q9NZQ7 19-290, one chain of several): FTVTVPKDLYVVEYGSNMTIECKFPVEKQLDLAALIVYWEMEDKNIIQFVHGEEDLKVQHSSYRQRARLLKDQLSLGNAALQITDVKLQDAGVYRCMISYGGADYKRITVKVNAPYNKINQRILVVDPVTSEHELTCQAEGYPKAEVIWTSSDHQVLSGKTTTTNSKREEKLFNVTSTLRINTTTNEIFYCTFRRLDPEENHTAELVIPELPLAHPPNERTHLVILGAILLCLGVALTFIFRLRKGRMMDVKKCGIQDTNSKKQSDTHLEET
Chain of cynomolgus PD-L1 on CHO-K1 cells (CHO-K1/cynoPD-L1, Nanjing Genscript, M00573) (cynomolgus) (G7PSE7 entry or part of it limits assumed, one chain of several): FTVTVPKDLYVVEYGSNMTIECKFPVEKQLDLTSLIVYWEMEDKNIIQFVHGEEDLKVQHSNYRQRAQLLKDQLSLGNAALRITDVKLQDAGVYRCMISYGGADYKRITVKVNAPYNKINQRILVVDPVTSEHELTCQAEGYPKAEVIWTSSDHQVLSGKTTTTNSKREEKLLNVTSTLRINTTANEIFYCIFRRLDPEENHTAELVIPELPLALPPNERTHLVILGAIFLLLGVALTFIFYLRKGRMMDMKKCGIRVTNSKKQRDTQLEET

In the case of isotype antibody hIgG1 iso, the results for the MFI maximum value in experiment [1] and in experiment [2] were 305 MFI and 935 MFI, respectively. For the same substance, the Maximum inhibition rate (%) in experiment [3] worked out at 0.68%.
